Laboratory results published in article PMC9462685 (Science Advances, 2022).

B1: Sr35^Δ20 (domain or fragment)
chain: GEITLEKKVRKGIESLITELKLMQAVLSKVSKVPADQLDEGVKIWAGNVKELSYQMEDIVDAFMVRVGDGGESTNPKNRVKKILKKVKKLFKNGKDLHRISAALEEVVLQAKQLAELRQRYEQEMRDTSANTSVDPRMMALYTDVTELVGIEETRDKLINMLTEGDDWSKHPLKTISIVGFGGLGKTTLAKAAYDKIKVQFDCGAFVSVSRNPEMKKVLKDILYGLDKVKYENIHNAARDEKYLIDDIIEFLNDKRYLIVIDDIWNEKAWELIKCAFSKKSPGSRLITTTRNVSVSEACCSSEDDIYRMEPLSNDVSRTLFCKRIFSQEEGCPQELLKVSEEILKKCGGVPLAIITIASLLANKGHIKAKDEWYALLSSIGHGLTKNRSLEQMKKILLFSYYDLPSYLKPCLLYLSIFPEDREIRRARLIWRWISEGFVYSEKQDISLYELGDSYFNELVNRSMIQPIGIDDEGKVKACRVHDMVLDLICSLSSEENFVTILDDPRRKMPNSESKVRRLSIQNSKIDVDTTRMEHMRSVTVFSDNVVGKVLDISRFKVLRVLDLEGCHVSDVGYVGNLLHLRYLGLKGTHVKDLPMEIGKLQFLLTLDLRGTKIEVLPWSVVQLRRLMCLYVDYGMKLPSGIGNLTFLEVLDDLGLSDVDLDFVKELGRLTKLRVLRLDFHGFDQSMGKALEESISNMYKLDSLDVFVNRGLINCLSEHWVPPPRLCRLAFPSKRSWFKTLPSWINPSSLPLLSYLDITLFEVRSEDIQLLGTLPALVYLEIWNYSVFEEAHEVEAPVLSSGAALFPCATECRFIGIGAVPSMFPQGAAPRLKRLWFTFPAKWISSENIGLGMRHLPSLQRVVVDVISEGASREEADEAEAALRAAAEDHPNRPILDIW
B2: Sr35^R157A (receptor)
chain: MEIAMGAIGSLLPKLGELLIGEITLEKKVRKGIESLITELKLMQAVLSKVSKVPADQLDEGVKIWAGNVKELSYQMEDIVDAFMVRVGDGGESTNPKNRVKKILKKVKKLFKNGKDLHRISAALEEVVLQAKQLAELRQRYEQEMRDTSANTSVDPAMMALYTDVTELVGIEETRDKLINMLTEGDDWSKHPLKTISIVGFGGLGKTTLAKAAYDKIKVQFDCGAFVSVSRNPEMKKVLKDILYGLDKVKYENIHNAARDEKYLIDDIIEFLNDKRYLIVIDDIWNEKAWELIKCAFSKKSPGSRLITTTRNVSVSEACCSSEDDIYRMEPLSNDVSRTLFCKRIFSQEEGCPQELLKVSEEILKKCGGVPLAIITIASLLANKGHIKAKDEWYALLSSIGHGLTKNRSLEQMKKILLFSYYDLPSYLKPCLLYLSIFPEDREIRRARLIWRWISEGFVYSEKQDISLYELGDSYFNELVNRSMIQPIGIDDEGKVKACRVHDMVLDLICSLSSEENFVTILDDPRRKMPNSESKVRRLSIQNSKIDVDTTRMEHMRSVTVFSDNVVGKVLDISRFKVLRVLDLEGCHVSDVGYVGNLLHLRYLGLKGTHVKDLPMEIGKLQFLLTLDLRGTKIEVLPWSVVQLRRLMCLYVDYGMKLPSGIGNLTFLEVLDDLGLSDVDLDFVKELGRLTKLRVLRLDFHGFDQSMGKALEESISNMYKLDSLDVFVNRGLINCLSEHWVPPPRLCRLAFPSKRSWFKTLPSWINPSSLPLLSYLDITLFEVRSEDIQLLGTLPALVYLEIWNYSVFEEAHEVEAPVLSSGAALFPCATECRFIGIGAVPSMFPQGAAPRLKRLWFTFPAKWISSENIGLGMRHLPSLQRVVVDVISEGASREEADEAEAALRAAAEDHPNRPILDIW

Molecular target: the molecule itself
Test: SEC

| Protein | binding result |
| --- | --- |
| B1 | binds |
| B2 | binds |
